In article PMC13596708 one finds IC50, IC50 after accounting for the 12 nucleosomes per array and Kd data, which are given here for 3 substances.

Holding throughout (test): AlphaScreen or HTRF
Background: Alpha assays give light when donor and acceptor beads are brought close together.

In assay [1] the target is HIS-tagged BRD4 short isoform (BRD4-S), wild type (human) (UniProt O60885).
The target is the same in assay [2]. The source holds these as a separate data set.
Assay [3] deals with unmodified nucleosome (human | Xenopus laevis) (UniProt P04908).
The target in assay [4] is H4 K12acK16ac nucleosome (human | Xenopus laevis) (UniProt P04908).
Assay [5] has the same target. The source holds these as a separate data set.
Assay [6] shares this target. This is another data set of the same source.
Assay [7] concerns the target unmodified nucleosome (human | Xenopus laevis) (UniProt P04908). This is another data set of the same source.
Assay [8] addresses H4 K12acK16ac nucleosome (human | Xenopus laevis) (UniProt P04908). The source holds these as a separate data set.
Assay [9] addresses unmodified nucleosome (human | Xenopus laevis) (UniProt P04908). The source holds these as a separate data set.
For assay [10], the target named is H4 K12acK16ac nucleosome (human | Xenopus laevis) (UniProt P04908). This is another data set of the same source.
Assay [11] has as its target unmodified nucleosome (human | Xenopus laevis) (UniProt P04908). This is another data set of the same source.
In assay [12] the target is H4 K12acK16ac nucleosome (human | Xenopus laevis) (UniProt P04908). This is another data set of the same source.
For assay [13], the target named is unmodified nucleosome (human | Xenopus laevis) (UniProt P04908). This is another data set of the same source.

Read-outs that look alike come from different tables or passages of the source.

By IC50 is commonly meant the concentration that gives 50% inhibition. Lower therefore signals higher potency. On to “12x nucleosome array, H4 K12acK16ac histones (from UniProt P04908 1-130; P06899 1-126; P62799 1-103) (complex)”, for which, in [1], the IC50 was found to be 1 nM and the IC50 after accounting for the 12 nucleosomes per array came out at 12 nM. The IC50 in [2] is 2.4 nM.

For “12x nucleosome array, unmodified histones (from UniProt P04908 1-130; P06899 1-126) (complex)”, the figures for the IC50 in [1] and in assay [2] were 3.3 nM and 1.3 nM, respectively. In assay [1], this substance came in with an IC50 after accounting for the 12 nucleosomes per array of 40 nM.

In general, Kd refers to the free concentration of one partner at which half of the binding sites on the other are occupied at equilibrium, for simple one-to-one binding. A lower Kd goes with higher affinity. On to “HIS-tagged BRD4 short isoform (BRD4-S), wild type (from UniProt O60885-2 2-722) (natural protein)”, for which the Kd was found to be 43 nM in [3]; 12.2 nM in assay [4]; 37 nM in [5]; 18 nM in assay [6]; 71 nM in assay [7]; 26 nM in assay [8]. Besides, the Kd in [9] was found to be 100 nM; in assay [10], 42 nM; in [11] it was 37 nM; in assay [12], 8 nM; in assay [13], 6.6 nM.
